Data: patent US20150344570A1 (published 2015)
Positions count from the first letter of the chain named. In names and notes the source's numbering stands.

T1: FcgRIIaR (human, UniProt P12318 34-217)
T1 construct: extracellular domain; Allotype R131; also called FcγRIIa R; FcgRIIa type R; not shown: His tag attached to the C terminus
T1 sequence (looked up): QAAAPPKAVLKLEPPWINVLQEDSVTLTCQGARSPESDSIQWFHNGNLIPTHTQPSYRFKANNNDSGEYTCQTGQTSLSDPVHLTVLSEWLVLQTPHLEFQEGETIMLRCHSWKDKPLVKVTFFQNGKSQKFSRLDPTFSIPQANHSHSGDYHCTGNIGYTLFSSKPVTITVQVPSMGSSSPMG

T2: FcgRIIaH (human, UniProt P12318 34-217)
T2 construct: extracellular domain; Allotype H131; also called FcγRIIa H; FcgRIIa type H; not shown: His tag attached to the C terminus
T2 sequence (looked up): T1 sequence (looked up) with R134H

T3: FcgRIIb (human, UniProt P31994 43-217)
T3 construct: extracellular domain; also called FcγRIIb; CD32B; not shown: His tag attached to the C terminus
T3 sequence (looked up): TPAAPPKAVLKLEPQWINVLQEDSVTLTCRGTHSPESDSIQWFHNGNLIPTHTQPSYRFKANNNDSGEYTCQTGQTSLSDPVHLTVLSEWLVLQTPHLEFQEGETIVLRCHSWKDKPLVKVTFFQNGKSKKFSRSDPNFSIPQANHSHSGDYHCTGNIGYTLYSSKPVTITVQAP

B1: GpH7-A5/GpH7-B3-15-02A/GpL16-k0 (antibody, human IgG1, kappa)
heavy 1: not shown
heavy 2: not shown
light: DIVMTQSPLSLPVTPGEPASISCQASESLVHSNRNTYLHWYLQKPGQSPQLLIYKVSNRFSGVPDRFSGSGSGTDFTLKISRVEAEDVGVYYCSQNTHVPPTFGQGTKVEIERTVAAPSVFIFPPSDEQLKSGTASVVCLLNNFYPREAKVQWKVDNALQSGNSQESVTEQDSKDSTYSLSSTLTLSKADYEKHKVYACEVTHQGLSSPVTKSFNRGEC
notes: H2 S298A
B2: GpH7-TA2/GpH7-B3-01-15Y/GpL16-k0 (antibody, human IgG1, kappa)
heavy 1: QVQLVQSGAEVKKPGASVTVSCKASGYTFTDYEMHWIRQPPGEGLEWIGAIDPKTGDTAYSESFQDRVTLTADKSTSTAYMELSSLTSEDTAVYYCTRFYSYTYWGQGTLVTVSSASTKGPSVFPLAPSSKSTSGGTAALGCLVKDYFPEPVTVSWNSGALTSGVHTFPAVLQSSGLYSLSSVVTVPSSSLGTQTYICNVNHKPSNTKVDKKVEPKSCDKTHTCPPCPAPELLWGPSVFLFPPKPKDTLMISRTPEVTCVVVDVSHEDPEVKFNWYVDGVEVHNAKTKPREEQYNSTYRVVSVLTVLHQDWLNGKEYKCKVSNKALPAPIEKTISKAKGQPREPQVYTLPPSRKELTKNQVSLTCLVKGFYPSDIAVEWESNGQPENNYKTTPPVLDSDGSFFLYSKLTVDKSRWQQGNVFSCSVMHEALHNRYTQKSLSLSP
heavy 2: not shown
light: B1 light
notes: H1 G236W; H2 L234Y
B3: H240-Kn120/H240-Hl068/L73-k0 (antibody, human IgG1, kappa)
heavy 1: QDQLVQSGAEVKKPGASVKVSCKASGFNIKDTYIQWVRQAPGQGLEWMGRIDPLRKQTKYREKFEGRVTITADTSTNTAYMELSSLRSEDTAVYYCVRSGREFDYWGQGTLVTVSSASTKGPSVFPLAPSSKSTSGGTAALGCLVKDYFPEPVTVSWNSGALTSGVHTFPAVLQSSGLYSLSSVVTVPSSSLGTQTYICNVNHKPSNTKVDKKVEPKSCDKTHTCPPCPAPEYYWGPMVFLFPPKPKDTLMISRTPEVTCVVVDVSDEDPEVKFNWYVDGVEVHNAKTKPREEQYNATYRVVSVLTVLHQDWLNGKEYKCKVSNKDLPAPIEKTISKAKGQPREPQVCTLPPSRDELTKNQVSLWCLVKGFYPSDIAVEWESNGQPENNYKTTPPVLDSDGSFFLYSKLTVDKSRWQQGNVFSCSVMHEALHNHYTQKSLSLSP
heavy 2: QDQLVQSGAEVKKPGASVKVSCKASGFNIKDTYIQWVRQAPGQGLEWMGRIDPLRKQTKYREKFEGRVTITADTSTNTAYMELSSLRSEDTAVYYCVRSGREFDYWGQGTLVTVSSASTKGPSVFPLAPSSKSTSGGTAALGCLVKDYFPEPVTVSWNSGALTSGVHTFPAVLQSSGLYSLSSVVTVPSSSLGTQTYICNVNHKPSNTKVDKKVEPKSCDKTHTCPPCPAPELLGGPSVFLFPPKPKDTLMISRTPEVTCVVVDVSHEEPEVKFNWYVDGVEVHNAKTKPREEQYNSTYRVVSVLTVLHQDWLNGKEYKCKVSNDALPKPIEETISKAKGQPREPQVYTLPPSRCELTKNQVSLSCAVKGFYPSDIAVEWESNGQPENNYKTTPPVLDSDGSFFLVSKLTVDKSRWQQGNVFSCSVMHEALHNHYTQKSLSLSP
light: DIQMTQSPSSLSASVGDRVTITCRASQDIHKYIAWYQQKPGQAPRLLIQYTSTLQPGVPSRFSGSGSGTDYTFTISSLQPEDIATYYCLQYEQLRTFGGGTKVEIKRTVAAPSVFIFPPSDEQLKSGTASVVCLLNNFYPREAKVQWKVDNALQSGNSQESVTEQDSKDSTYSLSSTLTLSKADYEKHKVYACEVTHQGLSSPVTKSFNRGEC
notes: Heterodimerized (knobs-into-holes) anti-epiregulin IgG1 antibody
B4: H240-Kn120/H240-Hl182/L73-k0 (antibody, human IgG1, kappa)
heavy 1: B3 heavy 1
heavy 2: B3 heavy 2 with A230H
light: B3 light
notes: Heterodimerized anti-epiregulin IgG1 antibody; A231H in H240-Hl068
B5: H240-Kn138/H240-Hl068/L73-k0 (antibody, human IgG1, kappa)
heavy 1: B3 heavy 1 with L327W
heavy 2: B3 heavy 2
light: B3 light
notes: Heterodimerized anti-epiregulin IgG1 antibody; L328W in H240-Kn120
B6: H240-Kn172/H240-Hl177/L73-k0 (antibody, human IgG1, kappa)
heavy 1: B3 heavy 1 with I331M
heavy 2: B3 heavy 2 with I331Q
light: B3 light
notes: Heterodimerized anti-epiregulin IgG1 antibody; I332M in H240-Kn120 and I332Q in H240-Hl068
B7: H240-Kn138/H240-Hl147/L73-k0 (antibody, human IgG1, kappa)
heavy 1: B3 heavy 1 with L327W
heavy 2: B3 heavy 2 with L327W
light: B3 light
notes: Heterodimerized anti-epiregulin IgG1 antibody; L328W in both H chains
B8: H240-Kn178/H240-Hl068/L73-k0 (antibody, human IgG1, kappa)
heavy 1: B3 heavy 1 with K333Y
heavy 2: B3 heavy 2
light: B3 light
notes: Heterodimerized anti-epiregulin IgG1 antibody; K334Y in H240-Kn120
B9: H240-Kn120/H240-Hl170/L73-k0 (antibody, human IgG1, kappa)
heavy 1: B3 heavy 1
heavy 2: B3 heavy 2 with L327A
light: B3 light
notes: Heterodimerized anti-epiregulin IgG1 antibody; L328A in H240-Hl068
B10: H240-Kn120/H240-Hl174/L73-k0 (antibody, human IgG1, kappa)
heavy 1: B3 heavy 1
heavy 2: B3 heavy 2 with I331E
light: B3 light
notes: Heterodimerized anti-epiregulin IgG1 antibody; I332E in H240-Hl068
B11: H240-Kn120/H240-Hl150/L73-k0 (antibody, human IgG1, kappa)
heavy 1: B3 heavy 1
heavy 2: B3 heavy 2 with I331T
light: B3 light
notes: Heterodimerized anti-epiregulin IgG1 antibody; I332T in H240-Hl068
B12: H240-Kn173/H240-Hl068/L73-k0 (antibody, human IgG1, kappa)
heavy 1: B3 heavy 1 with I331Q
heavy 2: B3 heavy 2
light: B3 light
notes: Heterodimerized anti-epiregulin IgG1 antibody; I332Q in H240-Kn120
B13: H240-Kn166/H240-Hl170/L73-k0 (antibody, human IgG1, kappa)
heavy 1: B3 heavy 1 with L327A
heavy 2: B3 heavy 2 with L327A
light: B3 light
notes: Heterodimerized anti-epiregulin IgG1 antibody; L328A in both H chains

Key:
[1] = target: FcγRIIIa extracellular domain with C-terminal His tag (human, UniProt P08637 17-208); assay: SPR (Biacore), relative binding activity; GpH7-A5/GpH7-B3/GpL16-k0 = 100
FcγRIIIa extracellular domain with C-terminal His tag, sequence (P08637 17-208): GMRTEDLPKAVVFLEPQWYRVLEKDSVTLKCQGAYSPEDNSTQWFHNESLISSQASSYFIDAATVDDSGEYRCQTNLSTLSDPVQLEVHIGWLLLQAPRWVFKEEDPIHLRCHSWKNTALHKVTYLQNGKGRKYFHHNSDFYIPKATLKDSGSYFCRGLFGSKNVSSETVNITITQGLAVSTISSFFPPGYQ

FcgRIa = target: T4, FcgRIa (human, UniProt P12314 16-292); assay: SPR (Biacore); KD of H240-Kn120/H240-Hl068/L73-k0 divided by KD of the sample
T4 construct: extracellular domain; Soluble extracellular domain expressed in FreeStyle293 cells; also called FcγRIa; FcγRI; not shown: His tag attached to the C terminus
T4 sequence (P12314 16-292): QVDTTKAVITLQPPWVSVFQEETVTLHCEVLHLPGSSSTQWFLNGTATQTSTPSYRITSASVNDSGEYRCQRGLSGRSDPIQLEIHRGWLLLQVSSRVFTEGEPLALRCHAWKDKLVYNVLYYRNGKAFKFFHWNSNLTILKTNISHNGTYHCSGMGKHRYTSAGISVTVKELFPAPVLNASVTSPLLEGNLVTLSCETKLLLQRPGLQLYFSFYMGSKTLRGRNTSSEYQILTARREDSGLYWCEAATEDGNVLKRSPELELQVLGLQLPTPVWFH
Procedure: (§1) Analysis of interaction between objective antibody and the FcγR was carried out using Biacore T100 (GE Healthcare), Biacore T200, Biacore A100, and Biacore 4000. HBS-EP+ (GE Healthcare) was used as the running buffer, and the measurement temperature was set to 25° C. Chips produced by immobilizing the antigen peptide by the amine coupling method to a Series S sensor Chip CM5 (GE Healthcare), chips produced by allowing preliminarily biotinylated antigen peptides to interact with and immobilize onto a Series S Sensor Chip SA (certified) (GE Healthcare), chips produced by immobilizing Protein L (ACTIGEN, BioVision) to Series S Sencor Chip CM5 (GE Healthcare), or chips produced by immobilizing Protein A/G (Thermo Scientific) to Series S Sencor Chip CM5 (GE Healthcare) were used. Antibodies of interest were captured onto these chips, and allowed to interact to each FcγR diluted with running buffer. To regenerate and repeatedly use the chip, the antibodies captured onto the chip were washed off by reacting 10 mM glycine-HCl, pH 1.5.

FcgRIIaR = target: T1, FcgRIIaR; assay: as above
Procedure: as §1

FcgRIIaH = target: T2, FcgRIIaH; assay: as above
Procedure: as §1

FcgRIIb = target: T3, FcgRIIb; assay: as above
Procedure: as §1

FcgRIIIaF = target: T5, FcgRIIIaF (human, UniProt P08637 17-208); assay: as above
T5 construct: extracellular domain; Allotype F158; also called FcγRIIIa F; not shown: His tag attached to the C terminus
T5 sequence (P08637 17-208): as the sequence (P08637 17-208) above
Procedure: as §1

FcgRIIIaV = target: T6, FcgRIIIaV (human, UniProt P08637 17-208); assay: as above
T6 construct: extracellular domain; Allotype V158; also called FcγRIIIa V; not shown: His tag attached to the C terminus
T6 sequence (P08637 17-208 F176V limits assumed): as the sequence (P08637 17-208) above, with F160V counted along it
Procedure: as §1

Binder	FcγRIIIa BINDING ACTIVITY [1] [%]	relative KD (FcgRIa)	relative KD (FcgRIIaR)	relative KD (FcgRIIaH)	relative KD (FcgRIIb)	relative KD (FcgRIIIaF)	relative KD (FcgRIIIaV)
B1	163	–	–	–	–	–	–
B2	130	–	–	–	–	–	–
B3	–	1	1	1	1	1	1
B4	–	0.9	0.5	0.5	0.6	0.7	1.2
B5	–	1	1.1	1.6	1.2	0.6	0.8
B6	–	0.6	0.7	0.7	0.9	1.1	1.6
B7	–	0.5	1.8	0.3	1.4	0.1	0
B8	–	0.7	0.8	0.6	1.4	1.6	1.9
B9	–	0.8	2.3	2.3	2.2	0.6	0.4
B10	–	1.1	0.7	0.7	1.2	4.3	10
B11	–	0.4	1	1.2	1.5	0.7	0.6
B12	–	1.3	0.5	0.7	0.5	1.2	0.9
B13	–	2.4	0.6	1.9	0.8	0.5	0.4
